Experimental data as given in patent publication US20200319189A1.

Key:
[1] = target: AGP from plasma of patients with hepatocellular carcinoma (HCC-AGP) (human) (UniProt P02763); experiment: reversed S2-ELISA: S2 coated at 5 µg/mL, plasma 1:50, detection with antibody 058
[2] = target: desialylated AGP (dsAGP) (human) (UniProt P02763); experiment: reversed S2-ELISA: S2 coated at 5 µg/mL, dsAGP 2 µg/ml, detection with antibody 058
[3] = target: AGP from plasma of patients with hepatocellular carcinoma (HCC-AGP) (human) (UniProt P02763); experiment: reversed S2-ELISA, HCC-plasma sample against a normal sample (background); 5 µg/ml S2 coating
[4] = target: AGP from plasma of patients with hepatocellular carcinoma (HCC-AGP) (human) (UniProt P02763); experiment: standard lectin ELISA: antibody 058 coated, plasma 1:50, biotinylated S2 at 0.25 µg/mL for detection
[5] = target: desialylated AGP (dsAGP) (human) (UniProt P02763); experiment: standard lectin ELISA: antibody 058 coated, dsAGP 2 µg/ml, biotinylated S2 at 0.25 µg/mL for detection

signal to noise ratio [1]: 5.1
signal to noise ratio [2]: 5.2
signal to background ratio [3]: 10
signal to background ratio [4]: 1.05
signal to background ratio [5]: 1.38
Substance: S2-peptide (monovalent fucose-binding peptide; recombinant form of Aleuria aurantia lectin comprising only binding site 2) (from UniProt P18891 51-161)
